Results from publication PMC7366829 (Acta biomaterialia, 2020).

Molecular target: the molecule itself
Experiment: SEC-MALS

B1: BOR1 from Arabidopsis thaliana (AtBOR1), purified in DDM, GFP-8His tag cleaved (natural protein)
chain: not shown
B1 was tested, and the “stoichiometry N” value was 2.
